Experiment [1] has as its target T1, human ALK-1-Fc (TPP-11726) (human).
T1 construct: Used for panning, screening and SPR; also called hALK-1-Fc
The experiment can be described thus: ELISA: human ALK-1-Fc coated at 2 µg/ml, TPP-14719 titrated, detected with anti-human IgG2 (Fc specific) then anti-mouse IgG-HRP; readout Relative Fluorescence Units. Here is the method:
(§1) Antigens human ALK-1-Fc and human ALK-2-Fc were coated at 2 μg/ml and binding of TPP-14696 and TPP-14719 was detected by anti-human IgG2 (Fc specific) antibody (Sigma 19513) followed by anti-mouse IgG (whole molecule)—HRP (Sigma A9044, 1:40000).
(§2) In order to determine the selectivity for the ALK-1/BMPR-2 receptor complex compared to the ALK-2/BMPR-2 receptor, the specificity of the agonistic antibodies has been evaluated by ELISA (FIG. 9). The antigens human ALK-1-Fc and human ALK-2-Fc were coated at 2 μg/ml and binding of TPP-14696 and TPP-14719 was detected by anti-human IgG2 (Fc specific) antibody (Sigma 19513) followed by anti-mouse IgG (whole molecule)—HRP (Sigma A9044, 1:40000).

Experiment [2] deals with T2, hActivin RIA/ALK-2 Fc Chimera (TPP-17233) (human, UniProt Q04771 23-123).
T2 construct: also called human ALK-2-Fc
T2 sequence: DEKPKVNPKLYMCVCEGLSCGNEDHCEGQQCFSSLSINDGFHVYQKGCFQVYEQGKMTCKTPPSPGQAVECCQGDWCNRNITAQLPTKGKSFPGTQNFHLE
The experiment can be described thus: ELISA: human ALK-2-Fc coated at 2 µg/ml, TPP-14719 titrated, detected with anti-human IgG2 (Fc specific) then anti-mouse IgG-HRP; readout Relative Fluorescence Units. Here is the method:
as §1, §2

Experiment [3] deals with ALK-1/BMPR-2 receptor pair on PathHunter U2OS ALK-1/BMPR-2 dimerization cells (DiscoverX 93-0962C3) (UniProt P37023 22-503; Q13873 27-1038). The experiment can be described thus: cell-based or functional assay.
ALK-1/BMPR-2 receptor pair on PathHunter U2OS ALK-1/BMPR-2 dimerization cells (DiscoverX 93-0962C3), sequence (P37023 22-503, chain 1 of 2): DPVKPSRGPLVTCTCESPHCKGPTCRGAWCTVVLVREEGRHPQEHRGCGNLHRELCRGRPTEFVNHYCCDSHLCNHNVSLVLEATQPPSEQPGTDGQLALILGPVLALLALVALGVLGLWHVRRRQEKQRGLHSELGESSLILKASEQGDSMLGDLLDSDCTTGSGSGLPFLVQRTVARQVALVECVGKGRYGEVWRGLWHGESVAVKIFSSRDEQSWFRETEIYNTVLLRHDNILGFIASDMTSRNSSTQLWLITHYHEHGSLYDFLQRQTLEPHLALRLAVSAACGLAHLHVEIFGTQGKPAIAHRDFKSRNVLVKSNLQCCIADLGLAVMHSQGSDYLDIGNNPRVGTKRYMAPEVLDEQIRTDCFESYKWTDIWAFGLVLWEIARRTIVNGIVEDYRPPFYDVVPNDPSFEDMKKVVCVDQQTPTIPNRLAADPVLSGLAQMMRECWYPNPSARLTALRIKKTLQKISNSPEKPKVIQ
ALK-1/BMPR-2 receptor pair on PathHunter U2OS ALK-1/BMPR-2 dimerization cells (DiscoverX 93-0962C3), sequence (Q13873 27-1038, chain 2 of 2): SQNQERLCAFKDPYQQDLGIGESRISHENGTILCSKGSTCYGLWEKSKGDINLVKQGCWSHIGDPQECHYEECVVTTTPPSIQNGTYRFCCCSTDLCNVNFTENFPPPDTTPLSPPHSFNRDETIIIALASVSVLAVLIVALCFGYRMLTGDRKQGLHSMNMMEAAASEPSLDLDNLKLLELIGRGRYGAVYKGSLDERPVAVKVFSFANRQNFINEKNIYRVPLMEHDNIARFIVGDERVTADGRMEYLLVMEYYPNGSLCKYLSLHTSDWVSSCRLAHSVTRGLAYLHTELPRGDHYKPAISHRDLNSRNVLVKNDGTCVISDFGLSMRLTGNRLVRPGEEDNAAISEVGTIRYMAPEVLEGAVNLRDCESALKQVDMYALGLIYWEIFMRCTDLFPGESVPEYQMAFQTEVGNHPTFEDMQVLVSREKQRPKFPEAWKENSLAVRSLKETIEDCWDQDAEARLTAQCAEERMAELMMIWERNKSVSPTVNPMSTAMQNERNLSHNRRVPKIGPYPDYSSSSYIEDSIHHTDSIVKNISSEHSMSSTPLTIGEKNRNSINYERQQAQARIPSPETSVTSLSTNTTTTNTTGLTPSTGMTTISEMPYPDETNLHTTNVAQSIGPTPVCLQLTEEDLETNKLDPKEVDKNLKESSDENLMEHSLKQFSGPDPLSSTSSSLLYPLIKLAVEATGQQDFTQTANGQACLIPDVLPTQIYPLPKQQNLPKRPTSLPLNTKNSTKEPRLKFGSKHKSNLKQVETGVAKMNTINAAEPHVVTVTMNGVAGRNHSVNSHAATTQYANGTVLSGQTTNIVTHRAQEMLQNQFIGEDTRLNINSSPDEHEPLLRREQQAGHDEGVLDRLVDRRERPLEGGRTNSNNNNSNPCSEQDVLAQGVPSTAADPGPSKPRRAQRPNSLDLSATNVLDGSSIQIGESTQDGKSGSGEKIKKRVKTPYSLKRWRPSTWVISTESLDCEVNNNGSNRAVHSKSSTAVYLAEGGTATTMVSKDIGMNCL

T1 sequence (chain, as listed by the source limits assumed): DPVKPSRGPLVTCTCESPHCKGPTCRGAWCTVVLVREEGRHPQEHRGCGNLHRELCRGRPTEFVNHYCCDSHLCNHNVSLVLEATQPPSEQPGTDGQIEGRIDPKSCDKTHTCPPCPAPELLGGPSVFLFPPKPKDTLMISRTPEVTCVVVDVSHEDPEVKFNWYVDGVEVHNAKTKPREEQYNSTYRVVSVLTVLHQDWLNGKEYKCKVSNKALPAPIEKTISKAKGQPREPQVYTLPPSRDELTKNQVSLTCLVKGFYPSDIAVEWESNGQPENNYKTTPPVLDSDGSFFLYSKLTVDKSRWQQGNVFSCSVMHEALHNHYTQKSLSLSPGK

B1: TPP-14719 (13660-13469-scFv-kih-IgG2_Fc) (bispecific antibody)
chain 1: EVQLLESGGGLVQPGGSLRLSCAASGFTFSSYAMSWVRQAPGKGLEWVANINQDGSEKNYVDSMRGRFTISRDNSKNTLYLQMNSLRAEDTAVYYCAREFDYWGQGTLVTVTSSGGGGSGGGGSGGGGSQSVLAQPPSASGTPGQRVTISCSGSSSNIGSNYVYWYQQLPGTAPKLLIYGNNKRPSGVPDRFSGSKSGTSASLAISGLRSEDEADYYCAAWDDSLNGRVFGGGTKLTVLGGGGSGGGGSGGGGSGVECPPCPAPPVAGPSVFLFPPKPKDTLMISRTPEVTCVVVDVSHEDPEVQFNWYVDGVEVHNAKTKPREEQFNSTFRVVSVLTVVHQDWLNGKEYKCKVSNKGLPAPIEKTISKTKGQPREPQVYTLPPCREEMTKNQVSLWCLVKGFYPSDIAVEWESNGQPENNYKTTPPMLDSDGSFFLYSKLTVDKSRWQQGNVFSCSVMHEALHNHYTQKSLSLSPG
chain 2: EVQLLESGGGLVQPGGSLRLSCAASGFTFSDYYMTWIRQAPGKGLEWVSSISGGSTYYADSRKGRFTISRDNSENTLYLQMNSLRAEDTAVYYCARDFGVAGWFGQYGMDVWGQGTLVTVSSGGGGSGGGGSGGGGSQSVLTQPPSASGTPGQRVTISCTGSSSNIGAGYDVHWYQQLPGTAPKLLIYRSNQRPSGVPDRFSGSKSGTSASLAISGLRSEDEADYYCSSYAGNYNLVFGGGTKLTVLGGGGSGGGGSGGGGSGVECPPCPAPPVAGPSVFLFPPKPKDTLMISRTPEVTCVVVDVSHEDPEVQFNWYVDGVEVHNAKTKPREEQFNSTFRVVSVLTVVHQDWLNGKEYKCKVSNKGLPAPIEKTISKTKGQPREPQVCTLPPSREEMTKNQVSLSCAVKGFYPSDIAVEWESNGQPENNYKTTPPMLDSDGSFFLVSKLTVDKSRWQQGNVFSCSVMHEALHNHYTQKSLSLSPG
notes: scFv-Fc (kih) heterodimer with IgG2 Fc; also called BsAB TPP-14719
One may read the EC50 as the midpoint of the concentration-response curve. A lower EC50 goes with higher potency in that assay. Turning to B1, the EC50 in experiment [1] came out at 0.747 nM. The binding result in experiment [2] is recorded as “no binding”. In experiment [3], the “Agonistic activity in PathHunter U2OS cells EC50” value stood at 6.9 nM.
